Measurements published in patent US20220259593A1, “CONTROL OF MAMMALIAN GENE DOSAGE USING CRISPR” (The Regents of the University of California, priority 2019, published 2022).
Positions count from the first letter of the chain named.

B1: cr476 (nucleic acid)
guide: GTTTAAGAGCTAAGCTGGAAACAGCATAGCAAGTTTAAATAAGGCTAGTCCGTTATCAACTTGAAAAAGTGCGACCGAGTCGGTCGT
modifications: listed as DNA, chemistry not fully specified
B2: cr832 (nucleic acid)
guide: B1 guide with A59G, T70C, C72G, G73T, A74G, T84C, C85A, G86C
modifications: listed as DNA, chemistry not fully specified
B3: cr429 (nucleic acid)
guide: B1 guide with G44A, C45A, G48T, C50T, C72G, G73C, C75A, G83T, C85G, G86C
modifications: listed as DNA, chemistry not fully specified
B4: cr308 (nucleic acid)
guide: B1 guide with G43A, C51T, A59T, T70A, C72G, G73C, A74T, T84A, C85G, G86C
modifications: listed as DNA, chemistry not fully specified
B5: cr194 (nucleic acid)
guide: B1 guide with C50A, C72G, G73C, C85G, G86C
modifications: listed as DNA, chemistry not fully specified
B6: cr047 (nucleic acid)
guide: B1 guide with A5T, A8T, C72G, G73C, C85G, G86C
modifications: listed as DNA, chemistry not fully specified
B7: cr221 (nucleic acid)
guide: B1 guide with G33A, C57G, A65G, C72G, G73C, C85G, G86C
modifications: listed as DNA, chemistry not fully specified
B8: cr900 (nucleic acid)
guide: B1 guide with T36G, C72G, G73C, C85G, G86C
modifications: listed as DNA, chemistry not fully specified
B9: cr732 (nucleic acid)
guide: B1 guide with A42G, T53G, G71C, C72G, G73C, C85G, G86C
modifications: listed as DNA, chemistry not fully specified
B10: cr207 (nucleic acid)
guide: B1 guide with C72G, G73C, C81G, C85G, G86C
modifications: listed as DNA, chemistry not fully specified
B11: cr826 (nucleic acid)
guide: B1 guide with G33T, T49C, A55T, C72G, G73C, C85G, G86C
modifications: listed as DNA, chemistry not fully specified
B12: cr276 (nucleic acid)
guide: B1 guide with C45A, G48T, A59G, T70C, C72G, G73C, G77C, C81G, C85G, G86C
modifications: listed as DNA, chemistry not fully specified
B13: cr011 (nucleic acid)
guide: B1 guide with T4C, C72G, G73C, C85G, G86C
modifications: listed as DNA, chemistry not fully specified
B14: cr544 (nucleic acid)
guide: B1 guide with G33C, T62C, A67G, C72G, G73C, C85G, G86C
modifications: listed as DNA, chemistry not fully specified
B15: cr075 (nucleic acid)
guide: B1 guide with A5C, G7T, C72G, G73C, C85G, G86C
modifications: listed as DNA, chemistry not fully specified
B16: cr618 (nucleic acid)
guide: B1 guide with A39G, C72G, G73C, C85G, G86C
modifications: listed as DNA, chemistry not fully specified
B17: cr854 (nucleic acid)
guide: B1 guide with C72G, G73C, C75G, C76G, G82C, G83C, C85G, G86C
modifications: listed as DNA, chemistry not fully specified
B18: cr185 (nucleic acid)
guide: B1 guide with C72G, G73C, C81A, C85G, G86C
modifications: listed as DNA, chemistry not fully specified
B19: cr218 (nucleic acid)
guide: B1 guide with G33T, G63A, A66C, C72G, G73C, C85G, G86C
modifications: listed as DNA, chemistry not fully specified
B20: cr063 (nucleic acid)
guide: B1 guide with G1A, A5T, C72G, G73C, C85G, G86C
modifications: listed as DNA, chemistry not fully specified
B21: cr230 (nucleic acid)
guide: B1 guide with G29A, G52A, A66C, C72G, G73C, C85G, G86C
modifications: listed as DNA, chemistry not fully specified
B22: cr979 (nucleic acid)
guide: B1 guide with T53G, A58T, C72G, G73C, C85G, G86C
modifications: listed as DNA, chemistry not fully specified
B23: cr683 (nucleic acid)
guide: B1 guide with C50T, C57G, C72G, G73C, C85G, G86C
modifications: listed as DNA, chemistry not fully specified
B24: cr294 (nucleic acid)
guide: B1 guide with G44A, C45A, G48T, C50T, C72G, G73C, C85G, G86C
modifications: listed as DNA, chemistry not fully specified
B25: cr452 (nucleic acid)
guide: B1 guide with G33A, C57A, C72G, G73C, C85G, G86C
modifications: listed as DNA, chemistry not fully specified
B26: cr180 (nucleic acid)
guide: B1 guide with A41C, C72G, G73C, T80C, C85G, G86C
modifications: listed as DNA, chemistry not fully specified
B27: cr853 (nucleic acid)
guide: B1 guide with G33T, T46G, C72G, G73C, C85G, G86C
modifications: listed as DNA, chemistry not fully specified
B28: cr228 (nucleic acid)
guide: B1 guide with C45G, C72G, G73C, C85G, G86C
modifications: listed as DNA, chemistry not fully specified
B29: cr447 (nucleic acid)
guide: B1 guide with T34C, C72G, G73C, G77A, C81T, C85G, G86C
modifications: listed as DNA, chemistry not fully specified
B30: cr502 (nucleic acid)
guide: B1 guide with C72G, G73C, G83C, C85G, G86C
modifications: listed as DNA, chemistry not fully specified
B31: cr229 (nucleic acid)
guide: B1 guide with A42C, C72G, G73C, C85G, G86C
modifications: listed as DNA, chemistry not fully specified
B32: cr760 (nucleic acid)
guide: B1 guide with A32G, A41C, A65T, C72G, G73C, C85G, G86C
modifications: listed as DNA, chemistry not fully specified
B33: cr347 (nucleic acid)
guide: B1 guide with T34C, G44C, C50G, C72G, G73C, C85G, G86C
modifications: listed as DNA, chemistry not fully specified
B34: cr090 (nucleic acid)
guide: B1 guide with A5T, G7T, C72G, G73C, C85G, G86C
modifications: listed as DNA, chemistry not fully specified
B35: cr029 (nucleic acid)
guide: B1 guide with A5C, A8G, C72G, G73C, C85G, G86C
modifications: listed as DNA, chemistry not fully specified
B36: cr812 (nucleic acid)
guide: B1 guide with G48C, C72G, G73C, C85G, G86C
modifications: listed as DNA, chemistry not fully specified
B37: cr808 (nucleic acid)
guide: B1 guide with G43A, C51T, C60A, G69T, C72T, G73C, C85G, G86A
modifications: listed as DNA, chemistry not fully specified
B38: cr605 (nucleic acid)
guide: B1 guide with C45A, G48T, C72G, G73C, G77C, C81G, C85G, G86C
modifications: listed as DNA, chemistry not fully specified
B39: cr220 (nucleic acid)
guide: B1 guide with A41C, G52A, T54A, C72G, G73C, C85G, G86C
modifications: listed as DNA, chemistry not fully specified
B40: cr311 (nucleic acid)
guide: B1 guide with A47T, C57A, A58T, C72G, G73C, C85G, G86C
modifications: listed as DNA, chemistry not fully specified
B41: cr373 (nucleic acid)
guide: B1 guide with T34C, C72G, G73C, C75G, G83C, C85G, G86C
modifications: listed as DNA, chemistry not fully specified

Tested on: K562 CRISPRi cells
Assay: Constant region variant library pooled growth screen, K562
Type: cell-based, human
Conditions: sgRNA constant region variants; activity relative to the original, un-modified constant region cr995
Summary of the method: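 Relative activity expresses each targeting sequence:constant region pair's phenotype over that of the unmodified constant region. Pooled growth screen ran in K562 CRISPRi cells in duplicate spinner-flask replicates, with puromycin selection and 4–8 days' growth at >2000× coverage; library paired variants with 36 targeting sequences.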

| Molecule | Mean relative activity |
| --- | --- |
| B1 | 1.039 |
| B2 | 1.039 |

Same assay, conditions: sgRNA constant region variants; activity relative to the unmodified constant region cr995

| Molecule | Mean relative activity |
| --- | --- |
| B3 | 0.196 |
| B4 | 0.2249 |
| B5 | 0.2113 |
| B6 | 0.1686 |
| B7 | 0.1553 |
| B8 | 0.1846 |
| B9 | 0.1926 |
| B10 | 0.2154 |
| B11 | 0.1633 |
| B12 | 0.2143 |
| B13 | 0.2088 |
| B14 | 0.1605 |
| B15 | 0.1521 |
| B16 | 0.1571 |
| B17 | 0.2099 |
| B18 | 0.1755 |
| B19 | 0.207 |
| B20 | 0.1565 |
| B21 | 0.1598 |
| B22 | 0.1765 |

| Molecule | Mean relative activity |
| --- | --- |
| B23 | 0.1568 |
| B24 | 0.1883 |
| B25 | 0.1813 |
| B26 | 0.208 |
| B27 | 0.2121 |
| B28 | 0.1424 |
| B29 | 0.1616 |
| B30 | 0.1485 |
| B31 | 0.1478 |
| B32 | 0.1909 |
| B33 | 0.1915 |
| B34 | 0.1865 |
| B35 | 0.1663 |
| B36 | 0.1766 |
| B37 | 0.1417 |
| B38 | 0.1839 |
| B39 | 0.2229 |
| B40 | 0.179 |
| B41 | 0.1993 |
